Reference: paper PMC5643538, “Direct visualization of critical hydrogen atoms in a pyridoxal 5′-phosphate enzyme” (Nature Communications, 2017)

Biological target: the molecule itself
Assay: crystal structure; joint neutron (2.2 Å) and X-ray (2.0 Å) structure at room temperature, pH 7.5, crystal soaked with 300 mM alpha-methyl-DL-aspartate; homodimer in one asymmetric unit

B1: recombinant porcine cytosolic aspartate aminotransferase (enzyme)
chain: MAPPSVFAEVPQAQPVLVFKLIADFREDPDPRKVNLGVGAYRTDDCQPWVLPVVRKVEQRIANDSSLNHEYLPILGLAEFRTCASRLALGDDSPALQEKRVGGVQSLGGTGALRIGAEFLARWYNGTNNKDTPVYVSSPTWENHNGVFTTAGFKDIRSYRYWDTEKRGLDLQGFLSDLENAPEFSIFVLHACAHNPTGTDPTPEQWKQIASVMKRRFLFPFFDSAYQGFASGNLEKDAWAIRYFVSEGFELFCAQSFSKNFGLYNERVGNLTVVAKEPDSILRVLSQMEKIVRVTWSNPPAQGARIVARTLSDPELFHEWTGNVKTMADRILSMRSELRARLEALKTPGTWNHITDQIGMFSFTGLNPKQVEYLINEKHIYLLPSGRINMCGLTTKNLDYVATSIHEAVTKIQ
modifications: pyridoxal 5'-phosphate covalently linked to K258 (internal aldimine; chain B at pH 7.5, both chains at pH 4.0); in chain A at pH 7.5 PLP is linked to alpha-methylaspartate (external aldimine) and K258 is free; protein deuterated
notes: aspartate aminotransferase, cytosolic, pig; the construct and its tag are not described here; also called AAT; source: E. coli T7 Express LacIQ, deuterated (minimal medium with 100% D2O), purified (Ni-NTA)
stoichiometry N: 2
